Assay [1] deals with T1, human CD40L expressed on HEK293 cells (human, UniProt P29965 1-261).
T1 construct: whole, on cells; also called hCD40L-HEK293 cells; hCD40L-HEK-293 cells (Crown Biosciences, C2041)
T1 sequence (looked up): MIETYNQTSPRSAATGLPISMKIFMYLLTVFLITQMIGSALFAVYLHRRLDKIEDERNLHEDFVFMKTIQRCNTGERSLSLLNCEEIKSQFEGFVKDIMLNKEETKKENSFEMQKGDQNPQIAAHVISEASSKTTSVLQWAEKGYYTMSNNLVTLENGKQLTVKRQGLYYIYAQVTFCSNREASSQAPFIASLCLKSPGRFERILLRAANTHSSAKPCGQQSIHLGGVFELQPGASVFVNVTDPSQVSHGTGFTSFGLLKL
Kind of assay: flow cytometry, clone at 1 uM on hCD40L-HEK293 cells (hatched), HEK-293 negative cells as control (open), detection anti-Cystatin A + A488 anti-goat. Here is the method: The cells were resuspended in PBS and 200,000 cells per well were dispatched in a round bottom 96 well plate. Cells were washed with PBS. The stefin A protein variant and controls were diluted in staining buffer containing 1% BSA, 0.01% Sodium Azide (NaN3), 2 mM EDTA in DPBS in duplicate and added on cells for staining for approximately 60 min at 4±1° c. Cells were washed and the secondary anti-Cystatin A (R&D, AF1407) was diluted 0.2 mg/ml in staining buffer and added on cells for staining for approximately 45 min at 4±1° c. Cells were washed again and the detection antibody A488 anti-goat (ThermoFisher, A21467) was diluted 1:500 in staining buffer and added to the cells for staining (approximately 30 min at 4±1° C.). Finally, the cells were washed and live and dead cells were stained using L/D stain Zombie Yellow (Biolegend, 423103) diluted in staining buffer for 10 min at 4±1° C. Cells were washed again and fixation buffer (R&D) was added to each well for 10 min at 4±1° C. then PBS with EDTA (Lonza) was added prior reading the plate on the flow cytometer (Guava 12 HT, Millipore). Dead cells were excluded, and the fluorescent green channel (488 nm/525/30) was acquired. Results were analyzed using Incyte and data were plotted using GraphPad.
Background: A flow cytometer gives signals particle by particle.

In assay [2] the target is T2, human CD40L (human, UniProt P29965 113-261, limits assumed).
T2 sequence (looked up): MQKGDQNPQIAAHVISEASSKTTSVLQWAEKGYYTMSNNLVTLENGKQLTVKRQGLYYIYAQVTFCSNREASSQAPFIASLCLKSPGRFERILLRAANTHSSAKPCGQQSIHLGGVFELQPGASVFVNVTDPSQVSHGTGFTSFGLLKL
Kind of assay: cell-based or functional assay.

The target of assay [3] is T2, human CD40L. Kind of assay: competitive ELISA: hCD40L (1 nM) premixed with the binder and added to plate-coated rhCD40 Fc; bound hCD40L detected with biotinylated anti-hCD40L polyclonal antibody. As for the experimental part:
To evaluate the avidity of the different formats, a CD40L competitive ELISA was performed. Briefly, the plates were coated with rhCD40 Fc at 1 μg/ml and incubated overnight at 4° C. The plates were washed twice with 150 μl of washing buffer (PBS, Tween 20 0.1%) with a plate washer and saturated with Casein 5% (Sigma) in PBS for 90 minutes at room temperature (25±1° C.). […] The resulting solution was then mixed and added to the plates. The plates were washed 3 times as described previously. […] The plates were incubated for 90 minutes at room temperature (25±1° C.). The plates were then washed. PolyHRP-Streptavidin was then diluted in dilution buffer and added to the plates. The plates were incubated an additional 90 minutes at room temperature (25±1° C.). Plates were washed 3 times as described previously and the substrate (TMB, Pierce Thermo-Scientific) was added in the plate for 10 minutes. The reaction was stopped using an acidic solution and the plates were read at 450-630 nm and the resulting percent inhibition was calculated.
(In general: In an ELISA, binding on a coated surface is turned into a signal by an enzyme label.)

The target of assay [4] is T2, human CD40L. Kind of assay: direct binding ELISA on plate-coated hCD40L (5 ug/ml), detection biotinylated anti-cystatin A antibody + polyHRP-streptavidin, OD 450-630 nm. As for the experimental part: Plates were washed 2 times with 150 μl of washing buffer (PBS, Tween 20 0.1%) with a plate washer and saturated with Casein 5% (Sigma) in PBS for 90 minutes at room temperature (25±1° C.). For binding, each DAW01 clone and rhCD40 Fc were added to the plate, starting from 1 μM, 1 in 3 and 300 nM, 1 in 3 respectively. Plates were washed 3 times as described previously. […] Then, cystatin A biotinylated polyclonal antibody (BAF1407) was diluted to a concentration of 0.05 μg/ml in dilution buffer (PBS, 1% casein, 0.01% Tween 20) and the plate was incubated for 90 minutes at room temperature (25±1° C.). PolyHRP-streptavidin was then diluted in dilution buffer and the plates were incubated for 90 minutes at room temperature (25±1° C.). The plates were then washed 3 times as described previously, and the substrate (TMB, Pierce Thermo-Scientific) was added to the plates for 10 minutes. The reaction was stopped using an acidic solution, and plates were read at 450-630 nm.

The target of assay [5] is T2, human CD40L. Kind of assay: cell-based or functional assay. The source holds these as a separate data set.
For assay [6], the target named is T2, human CD40L. Kind of assay: cell-based or functional assay. This is another data set of the same source.
The target in assay [7] is T2, human CD40L. Kind of assay: BIACORE (SPR) on hCD40L, kinetic fit; immobilised partner not stated. A general note: Surface plasmon resonance follows binding to a sensor surface in real time, without labels.

Usually EC50 stands for the concentration giving half of the maximal effect. Broadly, the Kd is the equilibrium constant for the complex coming apart. A high value points to lower affinity. Usually koff stands for the first-order rate constant of dissociation. Higher therefore signals a short-lived complex. The term kon denotes the second-order rate constant of association.

B1: stefin A protein variant clone 248 (designed binder)
chain: MIPGGLSEAKPATPEIQEIVDKVKPQLEEKTGETYGKLEAVQYKTQVVYDELYHEKAGTNYYIKVRAGDNKYMHLKVFKSLEYKFRNLEEDLVLTGYQVDKNKDDELTGF
In the case of B1, in assay [1], the “% Positive” value came out at 98.1% and the MFI was found to be 9620 MFI.

B2: clone-230 DT (trimer with a rigid linker) (designed binder)
chain: IPGGLSEAKPATPEIQEIVDKVKPQLEEKTGETYGKLEAVQYKTQVVHYYVHYNDQGTNYYIKVRAGDNKYMHLKVFKSLWGENLFAKWEDLVLTGYQVDKNKDDELTGFAEAAAKEAAAKEAAAKEAAAKEAAAKEAAAKMIPGGLSEAKPATPEIQEIVDKVKPQLEEKTGETYGKLEAVQYKTQVVHYYVHYNDQGTNYYIKVRAGDNKYMHLKVFKSLWGENLFAKWEDLVLTGYQVDKNKDDELTGFAEAAAKEAAAKEAAAKEAAAKEAAAKEAAAKMIPGGLSEAKPATPEIQEIVDKVKPQLEEKTGETYGKLEAVQYKTQVVHYYVHYNDQGTNYYIKVRAGDNKYMHLKVFKSLWGENLFAKWEDLVLTGYQVDKNKDDELTGF
B2: the entries for the “IC50 (read off the curve)” value in the assay with human CD40L [2] and in the assay with human CD40L [3] were approximately 2 nM and approximately 4 nM, respectively.

B3: stefin A protein variant clone 261 (designed binder)
chain: MIPGGLSEAKPATPEIQEIVDKVKPQLEEKTGETYGKLEAVQYKTQVVVDQVWSENAGTNYYIKVRAGDNKYMHLKVFKSLPYLWRKHAVEDLVLTGYQVDKNKDDELTGF
As to B3, the EC50 with human CD40L [4] stood at 26.4 nM. In assay [1], the “% Positive” value is 97.9% and the MFI came to 7050 MFI.

B4: stefin A protein variant clone 230 (designed binder)
chain: MIPGGLSEAKPATPEIQEIVDKVKPQLEEKTGETYGKLEAVQYKTQVVHYYVHYNDQGTNYYIKVRAGDNKYMHLKVFKSLWGENLFAKWEDLVLTGYQVDKNKDDELTGF
As for B4, the “EC50 (HEK-Blue CD40 reporter cells, SEAP, OD 640 nm, hCD40L 0.8 nM)” value with human CD40L [5] was 11.6 nM. In addition, in the assay with human CD40L [6], the “EC50 (HEK-Blue cell-based assay, % inhibition)” value worked out at 608 nM. In the assay with human CD40L [7], this molecule had a Kd of 8.15 nM, a koff of 0.000975 s⁻¹ and a kon of 120000 M⁻¹ s⁻¹. In addition, the EC50 with human CD40L [4] worked out at 0.67 nM. Besides, in assay [1], the “% Positive” value was determined as 98.8% and the MFI was determined as 8990 MFI.

B5: stefin A protein variant clone 246 (designed binder)
chain: MIPGGLSEAKPATPEIQEIVDKVKPQLEEKTGETYGKLEAVQYKTQVVHIPALKVHAGTNYYIKVRAGDNKYMHLKVFKSLPYWYRHDQEEDLVLTGYQVDKNKDDELTGF
Turning to B5, in the assay with human CD40L [4], the EC50 was found to be 17.3 nM.

B6: stefin A protein variant clone 227 (designed binder)
chain: MIPGGLSEAKPATPEIQEIVDKVKPQLEEKTGETYGKLEAVQYKTQVVHDVFYDQKAGTNYYIKVRAGDNKYMHLKVFKSLKWWYRIGNPEDLVLTGYQVDKNKDDELTGF
With B6, the EC50 with human CD40L [4] was determined as 12.4 nM.

B7: stefin A protein variant clone 243 (designed binder)
chain: MIPGGLSEAKPATPEIQEIVDKVKPQLEEKTGETYGKLEAVQYKTQVVFTYQISYTVGTNYYIKVRAGDNKYMHLKVFKSLRWRYPARKPEDLVLTGYQVDKNKDDELTGF
Regarding B7, the EC50 in the assay with human CD40L [4] was determined as 57.5 nM. In assay [1], the “% Positive” value was 98.3% and the MFI is 4400 MFI.

B8: stefin A protein variant clone 244 (designed binder)
chain: MIPGGLSEAKPATPEIQEIVDKVKPQLEEKTGETYGKLEAVQYKTQVVRENWYGEFAGTNYYIKVRAGDNKYMHLKVFKSLLYIYRHPNYEDLVLTGYQVDKNKDDELTGF
B8: in the assay with human CD40L [4], the EC50 was found to be 45.6 nM.

B9: stefin A protein variant clone 270 (designed binder)
chain: MIPGGLSEAKPATPEIQEIVDKVKPQLEEKTGETYGKLEAVQYKTQVVLDGLYHVNSGTNYYIKVRAGDNKYMHLKVFKSLFYYYRSEPTEDLVLTGYQVDKNKDDELTGF
With B9, in assay [1], the “% Positive” value was found to be 98.4% and the MFI was 8540 MFI.

B10: stefin A protein variant clone 233 (designed binder)
chain: MIPGGLSEAKPATPEIQEIVDKVKPQLEEKTGETYGKLEAVQYKTQVVLQDQWPWRDGTNYYIKVRAGDNKYMHLKVFKSLTYGKKWYSWEDLVLTGYQVDKNKDDELTGF
With B10, the EC50 with human CD40L [4] amounted to 3.07 nM.

B11: stefin A protein variant clone 229 (designed binder)
chain: MIPGGLSEAKPATPEIQEIVDKVKPQLEEKTGETYGKLEAVQYKTQVVQYKIITWWSGTNYYIKVRAGDNKYMHLKVFKSLVYKNKRGGHEDLVLTGYQVDKNKDDELTGF
As for B11, the EC50 with human CD40L [4] was 15.3 nM.

B12: stefin A protein variant clone 231 (designed binder)
chain: MIPGGLSEAKPATPEIQEIVDKVKPQLEEKTGETYGKLEAVQYKTQVVYYQIITWWQGTNYYIKVRAGDNKYMHLKVFKSLGIRKKQQQREDLVLTGYQVDKNKDDELTGF
For the molecule B12, the EC50 with human CD40L [4] came to 6.12 nM.

B13: stefin A protein variant clone 247 (designed binder)
chain: MIPGGLSEAKPATPEIQEIVDKVKPQLEEKTGETYGKLEAVQYKTQVVHHAYAAVYVGTNYYIKVRAGDNKYMHLKVFKSLPYWYRKYPDEDLVLTGYQVDKNKDDELTGF
As for B13, the “EC50 (HEK-Blue CD40 reporter cells, SEAP, OD 640 nm, hCD40L 0.8 nM)” value with human CD40L [5] turned out to be 101 nM. Moreover, the “EC50 (HEK-Blue cell-based assay, % inhibition)” value with human CD40L [6] was 1190 nM. In the assay with human CD40L [7], this molecule registered a Kd of 3.74 nM, a koff of 0.00207 s⁻¹ and a kon of 553000 M⁻¹ s⁻¹. Moreover, in assay [1], the “% Positive” value amounted to 98.8% and the MFI is 9890 MFI.

B14: clone-230 DS (tetramer with a rigid linker) (designed binder)
chain: IPGGLSEAKPATPEIQEIVDKVKPQLEEKTGETYGKLEAVQYKTQVVHYYVHYNDQGTNYYIKVRAGDNKYMHLKVFKSLWGENLFAKWEDLVLTGYQVDKNKDDELTGFAEAAAKEAAAKEAAAKEAAAKEAAAKEAAAKMIPGGLSEAKPATPEIQEIVDKVKPQLEEKTGETYGKLEAVQYKTQVVHYYVHYNDQGTNYYIKVRAGDNKYMHLKVFKSLWGENLFAKWEDLVLTGYQVDKNKDDELTGFAEAAAKEAAAKEAAAKEAAAKEAAAKEAAAKMIPGGLSEAKPATPEIQEIVDKVKPQLEEKTGETYGKLEAVQYKTQVVHYYVHYNDQGTNYYIKVRAGDNKYMHLKVFKSLWGENLFAKWEDLVLTGYQVDKNKDDELTGFAEAAAKEAAAKEAAAKEAAAKEAAAKEAAAKMIPGGLSEAKPATPEIQEIVDKVKPQLEEKTGETYGKLEAVQYKTQVVHYYVHYNDQGTNYYIKVRAGDNKYMHLKVFKSLWGENLFAKWEDLVLTGYQVDKNKDDELTGF
Regarding B14, the “IC50 (read off the curve)” value with human CD40L [2] is approximately 0.6 nM; with human CD40L [3], approximately 2 nM.

For the origin of these results see patent US20260022160A1 (AFFYXELL THERAPEUTICS, published 2026).
